The record followed here is patent publication US5723127.

This assay deals with B7 (cell surface glycoprotein, CD28-ligand B7) (Homo sapiens (Human)) (UniProt P33681).

The substance “CTLA-4Ig (chimeric recombinant soluble B7-ligand) (from UniProt P16410) (Fc fusion)” displayed an IFN-γ production in PBMC stimulated with IL-12 alone (RIA) of over 5 fold.
